According to paper PMC10397247:

Assays:
[1] = target: T1, Core_NNNI-es_KEKE; assay: two-hybrid library CCmax; details: mean of both orientations;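 further: natural log of median RNA to DNA barcode read ratio; higher means stronger binding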
T1 chain: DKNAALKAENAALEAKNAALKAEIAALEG

[2] = target: T2, Core_INNN-es_KKEE; assay: two-hybrid library CCmax; details: mean of both orientations;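 further: natural log of median RNA to DNA barcode read ratio; higher means stronger binding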
T2 chain: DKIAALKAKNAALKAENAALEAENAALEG

[3] = target: T3, O1-bH; assay: two-hybrid library CCNG1;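 further: natural log of median RNA to DNA barcode read ratio; higher means stronger binding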
T3 chain: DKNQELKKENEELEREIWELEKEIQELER

[4] = target: T4, O10-bH; assay: two-hybrid library CCNG1;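 further: natural log of median RNA to DNA barcode read ratio; higher means stronger binding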
T4 chain: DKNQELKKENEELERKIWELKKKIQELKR

[5] = target: T5, O11-bH; assay: two-hybrid library CCNG1
T5 chain: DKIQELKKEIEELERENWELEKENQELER

[6] = target: T6, O12-bH; assay: two-hybrid library CCNG1
T6 chain: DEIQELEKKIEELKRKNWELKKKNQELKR

[7] = target: T7, O13-bH; assay: two-hybrid library CCNG1
T7 chain: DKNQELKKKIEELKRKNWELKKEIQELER

[8] = target: T8, O14-bH; assay: two-hybrid library CCNG1
T8 chain: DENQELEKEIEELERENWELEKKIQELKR

[9] = target: T9, O15-bH; assay: two-hybrid library CCNG1
T9 chain: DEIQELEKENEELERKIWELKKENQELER

[10] = target: T10, O16-bH; assay: two-hybrid library CCNG1
T10 chain: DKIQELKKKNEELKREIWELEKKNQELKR

[11] = target: T11, O2-bH; assay: two-hybrid library CCNG1
T11 chain: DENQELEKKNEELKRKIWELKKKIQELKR

[12] = target: T12, O3-bH; assay: two-hybrid library CCNG1
T12 chain: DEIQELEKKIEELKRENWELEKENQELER

[13] = target: T13, O4-bH; assay: two-hybrid library CCNG1
T13 chain: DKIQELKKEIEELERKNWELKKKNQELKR

[14] = target: T14, O5-bH; assay: two-hybrid library CCNG1
T14 chain: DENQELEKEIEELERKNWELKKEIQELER

[15] = target: T15, O6-bH; assay: two-hybrid library CCNG1
T15 chain: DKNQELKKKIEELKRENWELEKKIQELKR

[16] = target: T16, O7-bH; assay: two-hybrid library CCNG1
T16 chain: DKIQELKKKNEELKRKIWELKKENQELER

[17] = target: T17, O8-bH; assay: two-hybrid library CCNG1
T17 chain: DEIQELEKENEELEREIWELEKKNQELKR

[18] = target: T18, O9-bH; assay: two-hybrid library CCNG1
T18 chain: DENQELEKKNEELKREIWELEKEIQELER

[19] = target: T19, Core_NINN-es_KEKE; assay: two-hybrid library CCmax; details: mean of both orientations
T19 chain: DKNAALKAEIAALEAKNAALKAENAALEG

DENAALEAKNAALKAENAALEAKIAALKG [Core_NNNI-es_EKEK]
interaction score [1]: 2.1

DEIAALEAENAALEAKNAALKAKNAALKG [Core_INNN-es_EEKK]
interaction score [2]: 1.67

DKNQELKKENEELEREIWELEKEIQELER [O1-bH]
interaction score [3]: -0.259
interaction score [4]: 0.782
interaction score [5]: -0.522
interaction score [6]: -0.434
interaction score [7]: 0.467
interaction score [8]: -0.549
interaction score [9]: -0.695
interaction score [10]: -0.655
interaction score [11]: -0.214
interaction score [12]: -1.49
interaction score [13]: -1.15
interaction score [14]: -1.92
interaction score [15]: -0.62
interaction score [16]: -0.877
interaction score [17]: -2.35
interaction score [18]: -2.31

DENAALEAKIAALKAENAALEAKNAALKG [Core_NINN-es_EKEK]
interaction score [19]: 1.51
